Data from patent publication US20230064378A1 (Eli Lilly, published 2023).
Substitutions are numbered along the chain they refer to.

T1: human IL-4Rα on cells (human, UniProt P24394 26-825)
T1 sequence: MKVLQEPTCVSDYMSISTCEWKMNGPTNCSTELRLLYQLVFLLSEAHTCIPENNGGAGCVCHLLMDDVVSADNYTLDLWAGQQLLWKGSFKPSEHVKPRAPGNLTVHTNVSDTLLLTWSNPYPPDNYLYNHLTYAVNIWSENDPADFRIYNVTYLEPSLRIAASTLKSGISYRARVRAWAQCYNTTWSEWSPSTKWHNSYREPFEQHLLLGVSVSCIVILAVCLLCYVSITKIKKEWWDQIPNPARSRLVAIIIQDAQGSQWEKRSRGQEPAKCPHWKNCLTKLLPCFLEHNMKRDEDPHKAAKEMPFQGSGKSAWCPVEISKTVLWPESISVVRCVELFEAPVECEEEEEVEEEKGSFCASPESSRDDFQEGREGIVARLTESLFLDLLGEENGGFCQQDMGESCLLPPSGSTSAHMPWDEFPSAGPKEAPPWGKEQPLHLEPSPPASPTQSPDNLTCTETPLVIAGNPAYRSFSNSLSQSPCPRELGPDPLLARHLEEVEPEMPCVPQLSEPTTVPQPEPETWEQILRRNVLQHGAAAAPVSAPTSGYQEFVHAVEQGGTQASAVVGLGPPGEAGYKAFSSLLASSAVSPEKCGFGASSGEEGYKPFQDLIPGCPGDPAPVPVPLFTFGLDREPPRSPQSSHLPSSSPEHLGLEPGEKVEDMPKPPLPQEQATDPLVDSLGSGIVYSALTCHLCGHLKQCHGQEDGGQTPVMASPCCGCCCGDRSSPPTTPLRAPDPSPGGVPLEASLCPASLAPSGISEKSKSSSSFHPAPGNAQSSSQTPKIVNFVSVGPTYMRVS

B1: 5559 IgG4P KRQ 124C/378C (antibody)
heavy: QVQLVESGGGLVQPGGSLRLSCVASGFTFSHSSMNWVRQAPGKGLEWVSYISRATGAVYYADSVKGRFTISRDNAKNSLYLQMNSLRDEDTAVYYCAREPVFDYWGQGTLVTVSSASTKGPCVFPLAPCSRSTSESTAALGCLVKDYFPEPVTVSWNSGALTSGVHTFPAVLQSSGLYSLSSVVTVPSSSLGTKTYTCNVDHKPSNTKVDKRVESKYGPPCPPCPAPEFLGGPSVFLFPPKPKDTLMISRTPEVTCVVVDVSQEDPEVKFNWYVDGVEVHNAKTKPREEQFNSTYRVVSVLTVLHQDWLNGKEYKCKVSNKGLPSSIEKTISKAKGQPREPQVYTLPPSREEMTKNQVSLTCLVKGFYPSDICVEWESNGQPENNYKTTPPVLDSDGSFFLYSRLTVDKSRWQQGNVFSCSVMHEALHNHYTQKSLSLSLG
light: DIQMTQSPSAMSASVGDRVTITCRASQDISNYLAWFQQKPGKVPTRLIYAASSLQSGVPSRFSGSGSGTEFTLTISSLQPEDFATYYCLQWSSYPRTFGQGTKVEIKRTVAAPSVFIFPPSDEQLKSGTASVVCLLNNFYPREAKVQWKVDNALQSGNSQESVTEQDSKDSTYSLSSTLTLSKADYEKHKVYACEVTHQGLSSPVTKSFNRGEC
B2: 5559 IgG1A 124C/378C (antibody)
heavy: not shown
light: B1 light
B3: 5F3 IgG4PAA (antibody, V domains shown)
VH: QVQLVESGGGLVQPGGSLRLSCAASGFTFSISSMNWVRQAPGKGLEWVSYISRATGAIYYADSVKGRFTISRNNAKNSLYLQMNSLRDEDTAVYYCAREPVFDYWGQGTLVTVSS
VL: DIQMTQSPSAMSASVGDRVTITCRASQGISNYLAWFQQKPGKVPTRLIYAASSLQSGVPSRFSGSGSGTEFTLTISSLQPEDFATYYCLQHNSYPRTFGQGTKVEIKR
B4: 5559-Alexa Fluor-647 (antibody, V domains shown)
VH: B3 VH with A23V, I31H, I58V, N73D
VL: DIQMTQSPSAMSASVGDRVTITCRASQDISNYLAWFQQKPGKVPTRLIYAASSLQSGVPSRFSGSGSGTEFTLTISSLQPEDFATYYCLQWSSYPRTFGQGTKVEIK
modifications: Antibody conjugated to Alexa Fluor 647; the attachment sites are not stated and the letters do not carry the dye.
B5: 8660 IgG4P 124C/378C (antibody, V domains shown)
VH: B3 VH with I31H, I58V, N73D
VL: B3 VL with H91W, N92S

What was measured:
[1] = molecular target: T1, human IL-4Rα on cells; experiment: cell-based or functional assay
[2] = molecular target: T1, human IL-4Rα on cells; experiment: cell-based or functional assay; remark: listed apart in the source
[3] = molecular target: T1, human IL-4Rα on cells; experiment: cell-based or functional assay; remark: listed apart in the source
[4] = molecular target: T1, human IL-4Rα on cells; experiment: cell-based or functional assay; remark: listed apart in the source
[5] = molecular target: T1, human IL-4Rα on cells; experiment: cell-based or functional assay; remark: listed apart in the source
[6] = molecular target: T2, Human C1q (human, UniProt P02745 23-245; P02746 28-253; P02747 29-245); experiment: ELISA, antibody coated, C1q detected with anti-C1q-HRP
T2 construct: Bought (MS Biomedical); also called complement component C1q
T2 sequence (P02745 23-245 limits assumed, chain 1 of 3): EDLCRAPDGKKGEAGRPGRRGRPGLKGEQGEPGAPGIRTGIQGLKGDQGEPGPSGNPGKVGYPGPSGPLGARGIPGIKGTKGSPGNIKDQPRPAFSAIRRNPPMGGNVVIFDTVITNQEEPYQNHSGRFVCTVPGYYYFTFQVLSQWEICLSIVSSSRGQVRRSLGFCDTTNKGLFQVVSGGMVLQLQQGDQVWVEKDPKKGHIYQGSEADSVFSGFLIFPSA
T2 sequence (P02746 28-253 limits assumed, chain 2 of 3): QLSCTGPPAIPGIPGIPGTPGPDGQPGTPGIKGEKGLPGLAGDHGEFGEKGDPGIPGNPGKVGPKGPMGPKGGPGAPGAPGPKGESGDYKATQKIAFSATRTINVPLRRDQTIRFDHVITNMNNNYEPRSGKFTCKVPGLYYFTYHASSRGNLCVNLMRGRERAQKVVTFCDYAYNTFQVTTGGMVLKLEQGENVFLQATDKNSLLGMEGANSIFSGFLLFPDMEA
T2 sequence (P02747 29-245 limits assumed, chain 3 of 3): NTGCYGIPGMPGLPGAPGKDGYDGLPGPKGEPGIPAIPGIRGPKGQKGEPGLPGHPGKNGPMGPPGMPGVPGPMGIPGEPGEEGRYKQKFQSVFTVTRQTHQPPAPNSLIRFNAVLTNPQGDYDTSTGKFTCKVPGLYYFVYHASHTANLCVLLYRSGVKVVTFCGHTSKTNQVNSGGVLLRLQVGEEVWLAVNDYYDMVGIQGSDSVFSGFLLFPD
Protocol: The binding of the exemplified anti-IL-4Rα antibodies to human C1q was evaluated by ELISA. 96-well microplates were coated with 100 μL/well of each exemplified antibody diluted in DPBS (Dulbecco's HyClone) from 10 μg/mL to 0.19 g/mL, and incubated overnight at 4° C. The coating reagent was removed, plates were blocked with 200 μL/well casein blocking buffer (Thermo) and incubated for 2 hours at room temperature (RT). Plates were washed 3 times with wash buffer (1×TBE with 0.05% Tween 20), and 10 μg/mL Human C1q (MS Biomedical) diluted in casein blocking reagent is added at 100 μL/well and incubated for 3 hours at RT. Humanized IgG1 and humanized IgG4P isotype control antibodies were used as positive and negative controls respectively. Plates were then washed three times with wash buffer and 100 L/well of a 1:800 times dilution of Sheep anti-human C1q-HRP (Abcam #ab46191) in casein blocker was added and incubated for 1 hour at RT. The plates were then washed 6 times with wash buffer, and 100 μL/well of TMB Substrate (Pierce) was added to each well and incubated for 7 minutes. 100 μL/well of 1 N HCl was added to stop the reaction. Optical density was immediately measured at 450 nm on a colorimetric microplate reader. Data was analyzed using SoftMax Pro 7.1 Data Acquisition and Analysis Software.

[7] = molecular target: T1, human IL-4Rα on cells; experiment: flow cytometry staining of primary human B cells (Th2 cells also confirmed IL-4Rα+)
Description: Flow cytometry staining was used to assess cell purity on a BD LSRFortessa Cell Analyzer.

| Binder | IL-4 IC50 (nM), IL-4 induced SEAP activity in HEK-Blue cells [1] [nM] | IL-13 IC50 (nM), IL-13 induced SEAP activity in HEK-Blue cells [1] [nM] | binding result [6] | further results |
| --- | --- | --- | --- | --- |
| B1 | 0.08 | 0.67 | no binding | Inhibition of IL-4 induced STAT6 phosphorylation, B cells IC50 [2]: 0.05 µg/mL; Inhibition of IL-4 induced STAT6 phosphorylation, T cells IC50 [2]: 0.07 µg/mL; Inhibition of IL-13 induced STAT6 phosphorylation in B cells IC50 [3]: 0.06 µg/mL; Inhibition of IL-4 induced B cell proliferation IC50 [4]: 1.32 nM; Inhibition of CD23 expression on myeloid cells, IL-4 induced IC50 [5]: 18.2 nM; Inhibition of CD23 expression on myeloid cells, IL-13 induced IC50 [5]: 5.37 nM |
| B2 | – | – | no binding | – |
| B3 | 3.45 | > 35 | – | – |
| B4 | – | – | – | binding result [7]: binds |
| B5 | 0.03 | 0.24 | – | – |
